Measurements taken from PMC6028098, “The N-terminal region of photocleavable peptides that bind HLA-DR1 determines the kinetics of fragment release” (PLoS ONE, 2018).

Molecular target: HLA-DR1 (DRA*01:01/DRB1*01:01) extracellular domain (human)
Assay: fluorescence polarisation

Substance	IC50 [µM]
photoHAΔ1–2 photocleavable peptide (YVKxNTLRLAT)	1.04
HA peptide (unlabeled, non-photocleavable), HA306-318-derived	0.04
Ac-photoHA photocleavable peptide (Ac-PRYVKxNTLRLAT)	0.134
Ac-photoHAΔ1–2 photocleavable peptide (Ac-YVKxNTLRLAT)	0.227
photoHA photocleavable peptide (PRYVKxNTLRLAT)	0.092
